# From paper doi:10.1101/2025.11.11.687647 (bioRxiv, 2025)
# B1: Mycobacterium tuberculosis pyruvate carboxylase (MtPC), full-length (enzyme)
# chain: MFSKVLVANRGEIAIRAFRAAYELGVGTVAVYPYEDRNSQHRLKADESYQIGDIGHPVHAYLSVDEIVATARRAGADAIYPGYGFLSENPDLAAACAAAGISFVGPSAEVLELAGNKSRAIAAAREAGLPVLMSSAPSASVDELLSVAAGMPFPLFVKAVAGGGGRGMRRVGDIAALPEAIEAASREAESAFGDPTVYLEQAVINPRHIEVQILADNLGDVIHLYERDCSVQRRHQKVIELAPAPHLDAELRYKMCVDAVAFARHIGYSCAGTVEFLLDERGEYVFIEMNPRVQVEHTVTEEITDVDLVASQLRIAAGETLEQLGLRQEDIAPHGAALQCRITTEDPANGFRPDTGRISALRTAGGAGVRLDGSTNLGAEISPYFDSMLVKLTCRGRDLPTAVSRARRAIAEFRIRGVSTNIPFLQAVLDDPDFRAGRVTTSFIDERPQLLTARASADRGTKILNFLADVTVNNPYGSRPSTIYPDDKLPDLDLRAAPPAGSKQRLVKLGPEGFARWLRESAAVGVTDTTFRDAHQSLLATRVRTSGLSRVAPYLARTMPQLLSVECWGGATYDVALRFLKEDPWERLATLRAAMPNICLQMLLRGRNTVGYTPYPEIVTSAFVQEATATGIDIFRIFDALNNIESMRPAIDAVRETGSAIAEVAMCYTGDLTDPGEQLYTLDYYLKLAEQIVDAGAHVLAIKDMAGLLRPPAAQRLVSALRSRFDLPVHLHTHDTPGGQLASYVAAWHAGADAVDGAAAPLAGTTSQPALSSIVAAAAHTEYDTGLSLSAVCALEPYWEALRKVYAPFESGLPGPTGRVYHHEIPGGQLSNLRQQAIALGLGDRFEEIEEAYAGADRVLGRLVKVTPTSKVVGDLALALVGAGVSADEFASDPARFGIPESVLGFLRGELGDPPGGWPEPLRTAALAGRGAARPTAQLAADDEIALSSVGAKRQATLNRLLFPSPTKEFNEHREAYGDTSQLSANQFFYGLRQGEEHRVKLERGVELLIGLEAISEPDERGMRTVMCILNGQLRPVLVRDRSIASAVPAAEKADRGNPGHIAAPFAGVVTVGVCVGERVGAGQTIATIEAMKMEAPITAPVAGTVERVAVSDTAQVEGGDLLVVVS
# Target: the molecule itself
# Experiment: SEC
protein,measurement,value
B1,stoichiometry N,4
